Values of other authors, collected in article PMC5493423.

System: CD31 (protein used for the reported Kd)
Conditions: biotin; PBMCs at 1e7 cells/ml, 100 ul, aptamer 30 min at 4 C, then flow cytometry staining buffer; column in APTSCI binding buffer (composition not given)

Substance: CD31 aptamer, biotinylated (APTSCI CD31-2196BCI)
- Kd: 1.14 nM
